Patent US20220016257A1 (Daiichi Sankyo, published 2022)
Residue numbers refer to the chain shown, from its start. Blank lines part the entries; values can stand above or below the binder they belong to.

Legend:
[1] = target: T1, human CDH6 (full-length, on cells) (human, UniProt P55285 54-790); assay: flow cytometry, 293T cells transiently transfected with pcDNA3.1-hCDH6 (open) against untransfected 293T cells (shaded), antibody 10 ng/mL, anti-rat IgG-FITC
T1 construct: also called hCDH6; full-length hCDH6
T1 sequence: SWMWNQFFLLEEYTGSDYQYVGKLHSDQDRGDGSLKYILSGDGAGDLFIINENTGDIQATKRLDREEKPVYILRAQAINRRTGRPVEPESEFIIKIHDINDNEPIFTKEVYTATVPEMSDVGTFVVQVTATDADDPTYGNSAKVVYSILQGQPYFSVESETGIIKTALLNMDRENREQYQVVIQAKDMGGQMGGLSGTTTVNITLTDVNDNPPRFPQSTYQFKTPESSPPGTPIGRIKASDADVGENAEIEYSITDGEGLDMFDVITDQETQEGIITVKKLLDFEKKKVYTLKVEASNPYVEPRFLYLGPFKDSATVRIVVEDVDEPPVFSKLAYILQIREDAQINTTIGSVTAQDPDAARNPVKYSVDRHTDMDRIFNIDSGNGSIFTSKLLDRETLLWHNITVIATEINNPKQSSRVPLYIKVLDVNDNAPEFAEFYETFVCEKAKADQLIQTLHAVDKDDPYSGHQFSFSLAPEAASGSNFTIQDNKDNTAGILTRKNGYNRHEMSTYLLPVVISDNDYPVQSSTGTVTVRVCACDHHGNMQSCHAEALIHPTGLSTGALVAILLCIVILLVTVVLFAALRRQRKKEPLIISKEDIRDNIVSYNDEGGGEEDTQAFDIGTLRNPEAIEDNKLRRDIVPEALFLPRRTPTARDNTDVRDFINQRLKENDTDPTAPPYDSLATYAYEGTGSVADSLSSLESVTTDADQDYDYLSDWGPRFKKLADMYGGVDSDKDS
Method: The human CDH6-binding activity of the rat anti-CDH6 antibody produced in Example 1)-7 was evaluated by flow cytometry. […] The cells were cultured overnight under conditions of 37° C. and 5% C02, treated with TrypLE Express (Thermo Fisher Scientific Inc.), and thereafter, a cell suspension was prepared. […] Thereafter, the cells were suspended by the addition of the rat anti-CDH6 monoclonal antibody (clone No: rG019), which had been prepared in Example 1)-7, or rat IgG control (R&D Systems, Inc.) (final concentration: 10 ng/mL). The cells were left standing at 4° C. for 1 hour. The cells were washed twice with PBS supplemented with 5% FBS, and then suspended by the addition of Anti-Rat IgG (whole molecule)-FITC antibody produced in rabbit (Sigma-Aldrich Co. LLC) that had been 50-fold diluted with PBS supplemented with 5% FBS. The cells were left standing at 4° C. for 1 hour. The cells were washed twice with PBS supplemented with 5% FBS, followed by detection using a flow cytometer (FC500; Beckman Coulter, Inc.). The data was analyzed using FlowJo (TreeStar, Inc.). In the histogram of FIG. 1, the abscissa depicts FITC fluorescence intensity indicating the amount of the antibody bound, and the ordinate depicts a cell count. […] The rat IgG control binds to neither of the cells.

[2] = target: T1, human CDH6 (full-length, on cells); assay: competition flow cytometry on 786-O/hCDH6 cells, unlabeled antibody varied, competitor Alexa488-labeled H01L02 at 5 nM [lower panel]
Method: The cell suspension of the 786-O/hCDH6 stably expressing cell line produced in 6)-2-2-1 was centrifuged, and the supernatant was then removed. Thereafter, the cells were suspended by the addition of labeled NOV0712 or labeled H01L02 (final concentration: 5 nM) and, further, the addition of each of the 4 humanized hG019 antibodies (clone Nos: H01L02, H02L02, H02L03 and H04L02), which had been prepared in Example 5)-5-3, or the anti-CDH6 antibody NOV0712, which had been prepared in Reference Example 1, or human IgG1 (Calbiochem) as a negative control (final concentration: as shown in the abscissa of FIG. 7). The cells were left standing at 4° C. for 1 hour. Thereafter, the cells were washed twice with PBS supplemented with 5% FBS, followed by detection using a flow cytometer (Canto II; BD Biosciences). The data was analyzed using FlowJo (TreeStar, Inc.). The abscissa depicts the final concentration of the added unlabeled antibody, and the ordinate depicts the amount of the antibody bound based on mean fluorescence intensity. When unlabeled NOV0712 is added to cells supplemented with labeled NOV0712, the amount of the labeled antibody bound is decreased by replacement with the unlabeled antibody in an addition concentration-dependent manner because they compete with each other for binding to the same epitope. […] Likewise, when each of the 4 unlabeled humanized hG019 antibodies is added to cells supplemented with labeled H01L02, the amount of the labeled antibody bound is decreased by replacement with the unlabeled antibody in an addition concentration-dependent manner because they compete with each other for binding to the same epitope.

B1: rat anti-CDH6 monoclonal antibody rG019 (antibody, IgG2b, V domains shown)
VH: QVQLQQSGAELVKPGSSVKISCKASGYTFTRNFMHWIKQQPGNGLEWIGWIYCGDGETEYNQKFNGKATLTADRSSSTAYMELSRLTSEDSAVYFCARGVYGGFAGGYFDFWGQGVMVTVSS
VL: DIQMTQSPSLLSASVGDRVTLNCKASQNIYKNLAWYQQKLGEGPKLLIYDANTLQTGIPSRFSGSGSGSDFTLTISSLQPEDVATYFCQQYYSGWAFGGVTNLELKRA
notes: Rat antibody purified from hybridoma supernatant; also called rG019 antibody; clone rG019
- binding result [1]: binds

B2: humanized anti-CDH6 antibody H02L02 (antibody, human IgG1, kappa, V domains shown)
VH: EVQLVQSGAEVKKPGASVKVSCKASGYTFTRNFMHWVRQAPGQGLEWMGWIYPGDGETEYNQKFQGRVTITADRSTSTAYMELSSLRSEDTAVYFCARGVYGGFAGGYFDFWGQGTLVTVSS
VL: DIQMTQSPSSLSASVGDRVTITCKASQNIYKNLAWYQQKPGKAPKLLIYDANTLQTGVPSRFSGSGSGSDFTLTISSLQPEDFATYFCQQYYSGWAFGQGTKVEIKR
notes: hH02 heavy chain and hL02 light chain, human IgG1/kappa; also called H02L02 antibody; humanized hG019
- IC50 (read off the curve) [2]: ~3 nM

B3: humanized anti-CDH6 antibody H01L02 (antibody, human IgG1, kappa)
heavy: not shown
light: DIQMTQSPSSLSASVGDRVTITCKASQNIYKNLAWYQQKPGKAPKLLIYDANTLQTGVPSRFSGSGSGSDFTLTISSLQPEDFATYFCQQYYSGWAFGQGTKVEIKRTVAAPSVFIFPPSDEQLKSGTASVVCLLNNFYPREAKVQWKVDNALQSGNSQESVTEQDSKDSTYSLSSTLTLSKADYEKHKVYACEVTHQGLSSPVTKSFNRGEC
notes: hH01 heavy chain and hL02 light chain, human IgG1/kappa; also called H01L02 antibody; humanized hG019
- IC50 (read off the curve) [2]: ~5 nM

Continued, values first:

- IC50 (read off the curve) [2]: ~10 nM
B4: humanized anti-CDH6 antibody H02L03 (antibody, human IgG1, kappa, V domains shown)
VH: B2 VH
VL: B2 VL with P40L, K42E, A43G, S69T, F87Y
notes: hH02 heavy chain and hL03 light chain, human IgG1/kappa; also called H02L03 antibody; humanized hG019

- IC50 (read off the curve) [2]: ~10 nM
B5: humanized anti-CDH6 antibody H04L02 (antibody, human IgG1, kappa, V domains shown)
VH: B2 VH with E1Q, V37I, N61A, I70L, F95Y
VL: B2 VL
notes: hH04 heavy chain and hL02 light chain, human IgG1/kappa; also called H04L02 antibody; humanized hG019
